Experimental data reported in paper PMC9927256, “Structural and Functional Characterization of Rv0792c from Mycobacterium tuberculosis: Identifying Small Molecule Inhibitor against HutC Protein” (Microbiology Spectrum, 2022).
Where a chain is given by its changes, count along the chain named.

Legend:
[1] = biological target: T1, Rv0792c G80D G80D (Mycobacterium tuberculosis) (UniProt O86331); assay: ALISA (plate-immobilized protein)
T1 sequence: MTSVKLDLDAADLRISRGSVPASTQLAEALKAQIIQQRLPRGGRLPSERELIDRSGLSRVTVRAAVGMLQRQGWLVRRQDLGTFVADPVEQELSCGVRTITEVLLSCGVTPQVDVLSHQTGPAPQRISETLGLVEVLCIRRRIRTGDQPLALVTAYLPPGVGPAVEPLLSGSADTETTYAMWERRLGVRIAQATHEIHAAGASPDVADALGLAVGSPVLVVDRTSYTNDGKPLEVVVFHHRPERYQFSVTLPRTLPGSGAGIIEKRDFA

[2] = biological target: T2, Rv0792c R49A R49A (Mycobacterium tuberculosis) (UniProt O86331); assay: ALISA (plate-immobilized protein)
T2 sequence: T1 sequence with R49A, D80G

Work on “TCTAGTCATTCGTCATAATCCCATCTGTTTCTTCCTCCTTCCGT [Rv0792c_2 aptamer (also Rv0729c_2)]” yielded a Kd [1] of 0.12 µM and a Kd [2] of 0.074 µM.
